Assay results taken from the DeepSol protein solubility set.

Assay: soluble on expression in E. coli; label from the status in PepcDB or PDB records
With “GPGSMTEHENTPRLELEAALGYSGNLPGSLVAHPDQQHLLYALGACIVIRDANDAESSEFFYGHNDKISCLTVSVSGRYVASGQVTHPGFQADVCIFDFAERRLIHRMLLHKVKVQALAFSLDEQYLASVGGPDDNTVVLWDVKTGRPLCGAPAHHTETKAIAFFNNNSEKLITGGVGSLLVWTVDLEQRKMNSVDINMGNMRRSVQTISIEKTDKYVYCGTTSGDVICAQLQQANVFKMQGPQKKLSGGILSTILTNTGDVLVGSGAGELQLLSKINLTVQNSATVNGGVTALALMGDNYYVGTKTSNLYFVNGGNFMTRLRLTCHSEAVQDVVFPHGFSSVFATCCDTDIRVWNANSCTELLRIEVSNRTCNCLQFSRDGSLIISGWSDGRIRAFGPQSGKLVFSVADAHKVEQGSRSHKVGGKVGVTSVCADNAGHRIITGGSDGLVRVWAIRGATCTLEASMKEHKAAVNAIVISHDDTECVTASDDGSCIVWDLTRYLRRNIMYRQTYFRALEYYVDDSQLITCGSDKCIVYWDSVDCHAIREVCGSRTAELNSLSLSPDGRFFVTGGNDRIVKVWDYDRGECIAVGLAHSCSITKVRVSPDGKKIVSVGDEGAVMVWNIAELAIEGL” the “soluble on expression in E. coli” value was “not soluble”. With “GPGSMTNQSDAIFPNILWAQRAELVLITIPLQDATNVVVEIKEGRVLHFEAEAGGEKYRCDVELFREVVSEESRHAAQPRQIDIQLRKKAPLTESGEEEFAQSRSWLRLTRDKSKNSHIQVDWSRWRDEDEDEDETGGLGMDYNDLMSRMMTQKGLGEDDCMDCGNHTDEDGVGPGADKANHSDSDDYDDLPPLEP” the “soluble on expression in E. coli” value was “soluble”. With “GPGSMVDPSVLLAYCPTHDFQRIEAVVREWPGVEAVGSLRTKEGKENTTSVFIKFSDKEAARDATSRIDAVPGLVRKIEEPKAKQRMRKMGKNMLIDPAMEIFSFGATDKGDVTFNERKREGNRRRHPSVIGPGSGSERTSNKGNNAIRHHPFTPPARASVALVDNVPFNMTNDQVARLFSPFGELIDLSRYETMAMVFYRSPDSVLKCIQQLNGKTVKGKIITVSSGAITIPGLLAAVVGVQVHN” the “soluble on expression in E. coli” value was “soluble”. In the case of “GPGSMVRSSSSSSAPLWKNQGGGSATAGAVASTTSPWLLRQLALAHFHNGDIQESADAFEQLLRTAPWELTNPALIFYSTALWHLKSESALGSLAQRLTDAEPLSATTLCVVANAYSLIKDPRDALVMLKRAVQVAPTLAYAHALHGYELLGQDSKAEAEAEFKAALAVDASLYIAYAGLGERFMREEQIDKARGYYKEAVKLNPTPAIVNRFALTYHRQGKSLADLKTALRLYTESLERHPNNVTARRQRADVLLRLDQPMQALEELKALLVQCPGEAVVYVTLAECMVCLRRPHEALQHYQTAMHLDPRRESYVQGCIDQLVAANML”, the “soluble on expression in E. coli” value is reported as “soluble”. In the case of “GPGSMVTPEQAALIEGAFRSMDRDGTGLVRLEDIFRVFDDSRHPRVRDGELAPAATRDMLMHQFGATAQAHGGVSFDVFMRFHERMAEDAAVAKVNDKELFLTDTIIGVWRLGTLLQPTLIRPLFPVNVRPSGLYATQYMSLVWVDEVAGPGSFVVHVVRDVVRPIFSRGDLPPQLRGMFAYPTELAGMKIIEERLQIATQRWLDFVWEYEEGKHAAVPGIISARVDPDTLPQYLRDMIVEHDVAKAIPSLFFVPTSVAVNPMYKRSSEEYGYGVPEEVKRMSRWKDLTYSGQACGLIYHGRVGKFTRERLNAPVQDVASAMNI”, the “soluble on expression in E. coli” value is reported as “not soluble”. In the case of “GPGSMWTTSMALMSKRSMKYQTKLRHRFRNPSVLPLKQTKAQRDETIRSVLQVRNINPANQSSYRYVEQRLYSTGSRLDREGVKLNTTYALQGLGDLEPLRNSKSFGFSEREALKYDSLQQAAKYEAPPVPFTPLAARKLAEGKLWPSAPEPDGMLSKEVPYLRHRANMSPSAQTFADKIAYHLRRSLKACPAHIAEQMDFAQLIIEEVIASRRSKLVYIVWATVDPAARFAMEPQLHRLNHWVQRLIMERIRTRPNIPQIAWVWNGGRLERELPRELKEEMQAYASDNSSTLEMRVRYLKEMDTVNQRMRNIPWFMPYLWSKEEKAGKTRRMRKDLEEYEQRRLAAKKDQRESERDMSGRSVAPQIGAPPAYVR”, the “soluble on expression in E. coli” value is reported as “not soluble”. With “GPGSMYFTSAKDVVRLCGGGLAPEVTFAIDDYPATDSIGYNSSAVAGGGGTNVDGASMSNVTTAIQRSLRRASRTAGQPTLRPTRTEQVCGPAVLGAGEALGLAPFKYVCYTVSTTSVVAPASGSASAASKGAKGDGGATYVEFVDAFRIRTSDVHAAVIDIAAQQRAERLQHSPNLYVPWCAAAPGEVVPRGAARTVADFIVAARHRTLYSDYAATELLVRQSWLLQDAAAHTIRALMPHMVPRTYMPGEVMACPHTPGSLRQLCFLRRGRLNVFVVPKSGITPVLLMKGESPDVLVTSRFSRDGCGCWCLRETPTAQPAEVVESGASFGELSVLFHEPRHCILRADTVCDVWCLPRQNFAALMQRDAALRDGLLRKAAVLRVEWMGEQRFTRALAQQLRAGSELLKPLPDIAIRLIQERLEPVIYTPGSLVASTSTRCTEMTFIMRGTVSTIWKVLLHTAQGTCWARDA” the “soluble on expression in E. coli” value was “not soluble”. For “GPGSRGIDGRQVVRREIKWANMAADWNKTNTKMHAKLKERCRKGIPSRFRGVAWQLLMGSFHQLNSEENNGVYVALRDKKLADKETDVIISRDLARTFPTHVLFQDPGGVGQTFLRNILHAYAGCDPEVGYVQGMGFLVAALSTQMAEGGVLLGPA”, the “soluble on expression in E. coli” value was “not soluble”. For “GPHMTTIEDEDTKVRKQEIIKVTEQLIEAISNGDFESYTKMCDPGMTAFEPEALGNLVEGLDFHRFYFENLWSRNSKPVHTTILNPHIHLMGDESACIAYIRITQYLDAGGIPRTAQSEETRVWHRRDGKWQIVHFHRSGAPSVLPH”, the “soluble on expression in E. coli” value was “soluble”. With “GPLGSEVMGPVEAAPEYRVIVDANNLTVEIENELNIIHKFIRDKYSKRFPELESLVPNALDYIRTVKELGNSLDKCKNNENLQQILTNATIMVVSVTASTTQGQQLSEEELERLEEACDMALELNASKHRIYEYVESRMSFIAPNLSIIIGASTAAKIMGVAGGLTNLSKMPACNIMLLGAQRKTLSGFSSTSVLPHTGYIYHSDIVQSLPPDLRRKAARLVAAKCTLAARVDSFHESTEGKVGYELKDEIERKFDKWQE” the “soluble on expression in E. coli” value was “soluble”. For “GPLGSLVNVIRRESGNPDLLELLMDLNCYTLEVTEGYLKKVNVTEVNGDNVLGPIHVITTVVSSLVRNGLLIQSSKFISKVLLTVESIVMSLPKDETMLGGIFWLSNLSRLPAFAANQKTLYEANGGDEKDKLTLIYLNDLENETLKVFDKIYSTWLVKFMKHASAHIEIFDMVLNEKLFKNSGDEKFAKLFTFLNEFDAVLCKFQVVDSMHTKIFNDTLKYLNVMLFNDLITKCPALNWKYGYEVDRNIERLVSWFEPRIEDVRPNLIQIIQAVKILQLKISNLNEFKLLFDFWYALNPAQIQAILLKYKPANKGEAGVPNEILNYLANVIKRENLSLPGKMEIMLSAQFDSAKNHLRYDTSAITQNSNTEGLATVSKIIKLDRK”, the “soluble on expression in E. coli” value was “soluble”. In the case of “GPLGSMASATLGSSSSSASPAVAELCQNTPETFLEASKLLLTYADNILRNPSDEKYRSIRIGNTAFSTRLLPVRGAVECLFEMGFEEGETHLIFPKKASVEQLQKIRDLIAIERSSRLDGSSKK”, the “soluble on expression in E. coli” value is reported as “soluble”. For “GPLGSMEPPLPVGAQPLATVEGMEMKGPLREPCALTLAQRNGQYELIIQLHEKEQHVQDIIPINSHFRCVQEAEETLLIDIASNSGCKIRVQGDWIRERRFEIPDEEHCLKFLSAVLAAQKAQS”, the “soluble on expression in E. coli” value was “soluble”. For “GPLGSMPEVRFQQQLEQLNSMGFINREANLQALIATGGDINAAIERLLGSQLS”, the “soluble on expression in E. coli” value was “soluble”. In the case of “GPLGSMQLKPMEINPEMLNKVLSRLGVAGQWRFVDVLGLEEESLGSVPAPACALLLLFPLTAQHENFRKKQIEELKGQEVSPKVYFMKQTIGNSCGTMGLIHAVANNQDKLGFEDGSVLKQFLSETEKMSPEDRAKCFEKNEAIQAAHDAVAQEGQCRVDDKVNFHFILFNNVDGHLYELDGRMPFPVNHGASSEDTLLKDAAKVCREFTEREQGEVRFSAVALCKAA”, the “soluble on expression in E. coli” value is reported as “soluble”. For “GPLGSPEFPGMSKVFIATANAGKAHDADIFSVSACNSFTVSCSGDGYLKVWDNKLLDNENPKDKSYSHFVHKSGLHHVDVLQAIERDAFELCLVATTSFSGDLLFYRITREDETKKVIFEKLDLLDSDMKKHSFWALKWGASNDRLLSHRLVATDVKGTTYIWKFHPFADESNSLTLNWSPTLELQGTVESPMTPSQFATSVDISERGLIATGFNNGTVQISELSTLRPLYNFESQHSMINNSNSIRSVKFSPQGSLLAIAHDSNSFGCITLYETEFGERIGSLSVPTHSSQASLGEFAHSSWVMSLSFNDSGETLCSAGWDGKLRFWDVKTKERITTLNMHCDDIEIEEDILAVDEHGDSLAEPGVFDVKFLKKGWRSGMGADLNESLCCVCLDRSIRWFREAGGK”, the “soluble on expression in E. coli” value was “soluble”. For “GPLGSPQMAQGTLIRVTPEQPTHAVCVLGTLTQLDICSSAPEDCTSFSINASPGVVVDIAHSPPAKKKSTGSSTWPLDPGVEVTLTMKAASGSTGDQKVQISYYGPKTPPVKALLYLTAVEISLCADITRTGKVKPTRAVKDQRTWTWGPCGQGAILLVNCDRDNLESSAMDCEDDEVLDSEDLQDMSLMTLSTKTPKDFFTNHTLVLHVARSEMDKVRVFQATRGKLSSKCSVVLGPKWPSHYLMVPGGKHNMDFYVEALAFPDTDFPGLITLTISLLDTSNLELPEAVVFQDSVVFRVAPWIMTPNTQPPQEVYACSIFENEDFLKSVTTLAMKAKCKLTICPEEENMDDQWMQDEMEIGYIQAPHKTLPVVFDSPRNRGLKEFPIKRVMGPDFGYVTRGPQTGGISGLDSFGNLEVSPPVTVRGKEYPLGRILFGDSCYPSNDSRQMHQALQDFLSAQQVQAPVKLYSDWLSVGHVDEFLSFVPAPDRKGFRLLLASPRSCYKLFQEQQNEGHGEALLFEGIKKKKQQKIKNILSNKTLREHNSFVERCIDWNRELLKRELGLAESDIIDIPQLFKLKEFSKAEAFFPNMVNMLVLGKHLGIPKPFGPVINGRCCLEEKVCSLLEPLGLQCTFINDFFTYHIRHGEVHAGTNVRRKPFSFKWWNMVP”, the “soluble on expression in E. coli” value was “soluble”. In the case of “GPLGSSYSMEQVEGITSEYIVKNADMFAVAVSLVSGKILYISNQVASIFHCKKDAFSDAKFVEFLAPHDVSVFHSYTTPYKLPPWSVCSGLDSFTQECMEEKSFFCRVSVGKHHENEIRYQPFRMTPYLVKVQEQQGAESQLCCLLLAERVHSGYEAPRIPPEKRIFTTTHTPNCLFQAVDERAVPLLGYLPQDLIETPVLVQLHPSDRPLMLAIHKKILQAGGQPFDYSPIRFRTRNGEYITLDTSWSSFINPWSRKISFIIGRHKVRVGPLNEDVFAAPPCPEEKTPHPSVQELTEQIHRLLMQPVP”, the “soluble on expression in E. coli” value is reported as “soluble”. For “GPMPQLTLDKTDIKILQVLQENGRLTNVELSERVALSPSPCLRRLKQLEDAGIVRQYAALLSPESVNLGLQAFIRVSIRKAKDAREDFAASVRKWPEVLSCFALTGETDYLLQAFFTDMNAFSHFVLDTLLSHHGVQDAQSSFVLKEIKHTTSLPLNHLLKE”, the “soluble on expression in E. coli” value was “soluble”. With “GPNSGTLALLLDEGSKQLPQAIIIGVKKGGTRALLEFLRVHPDVRAVGAEPHFFDRSYDKGLAWYRDLMPRTLDGQITMEKTPSYFVTREAPARISAMSKDTKLIVVVRDPVTRAISDYTQTLSKRPDIPTFESLTFKNRTAGLIDTSWSAIQIGIYAKHLEHWLRHFPIRQMLFVSGERLISDPAGELGRVQDFLGLKRIITDKHFYFNKTKGFPCLKKAEGSSRPHCLGKTKGRTHPEIDREVVRRLREFYRPFNLKFYQMTGHDFGWDG” the “soluble on expression in E. coli” value was “soluble”. For “GPPQMSATNEDLKTNFHSLHNQMRQMPMSHFREALDAPDYSGMRQSGFFAMSQGFQLESHGGDVFMHAHRENPQCKGDFAGDKFHISVQREQVPQAFQALSGLLFSVDSPIDKWKVTDMERVDQQSRVAVGAQFTLYVKPDQENSQYSASSLHNTRQFIECLESRLSESGLMPGQYPESDVHPENWKYVSYRNELRSGRDGGEMQSQALREEPFYRLMAE”, the “soluble on expression in E. coli” value was “soluble”.
